In US20180217151A1:

Tests used:
[1] = target: CD27 antigen on human PBMCs (human) (UniProt P26842); experiment: flow cytometry, human PBMCs, biotinylated Fab, SA-APC, before washing; gate above APC about 1
[2] = target: CD27 antigen on human PBMCs (human) (UniProt P26842); experiment: flow cytometry, human PBMCs, biotinylated Fab, SA-APC, after five washing steps; same gate above APC about 1
[3] = target: CD27 antigen on human PBMCs (human) (UniProt P26842); experiment: flow cytometry, human PBMCs, biotinylated Fab 1 µg/mL, SA-APC, before washing; median of control (background) 0.2
[4] = target: CD27 antigen on human PBMCs (human) (UniProt P26842); experiment: flow cytometry, human PBMCs, biotinylated Fab 1 µg/mL, SA-APC, after five washing steps; enables reversible labeling: no
[5] = target: recombinant CD27 antigen (not stated (the Fab labels human PBMCs)) (UniProt P26842); experiment: SPR (Biacore), recombinant antigen (extracellular domain) immobilized by amine coupling, Fab as analyte, 1:1 binding mass transfer model
[6] = target: CD27 antigen on human PBMCs (human) (UniProt P26842); experiment: flow cytometry, human PBMCs, biotinylated Fab 1 µg/mL, SA-APC, after five washing steps; median of control (background) 0.2; enables reversible labeling: no
[7] = target: CD4 antigen on human PBMCs (human) (UniProt P01730); experiment: flow cytometry on human PBMCs, after 2 mM biotin and one washing step
[8] = target: CD4 antigen on human PBMCs (human) (UniProt P01730); experiment: flow cytometry on human PBMCs, Fab multimerized with anti-Biotin-PE, before disruption
[9] = target: CD4 antigen on human PBMCs (human) (UniProt P01730); experiment: flow cytometry, human PBMCs, biotinylated Fab 1 µg/mL, SA-APC, before washing; median of control (background) 0.3
[10] = target: CD4 antigen on human PBMCs (human) (UniProt P01730); experiment: flow cytometry, human PBMCs, biotinylated Fab 1 µg/mL, SA-APC, after five washing steps; enables reversible labeling: yes
[11] = target: CD4 antigen on human PBMCs (human) (UniProt P01730); experiment: flow cytometry, human PBMCs, biotinylated Fab, SA-APC, before washing; gate at APC about 5e1; the same gate in control C prints 0,06%-#
[12] = target: recombinant CD4 antigen (not stated (the Fab labels human PBMCs)) (UniProt P01730); experiment: SPR (Biacore), recombinant antigen (extracellular domain) immobilized by amine coupling, Fab as analyte, 1:1 binding mass transfer model
[13] = target: CD4 antigen on human PBMCs (human) (UniProt P01730); experiment: flow cytometry, human PBMCs, biotinylated Fab 1 µg/mL, SA-APC, after five washing steps; median of control (background) 0.3; enables reversible labeling: yes
[14] = target: CD62L antigen on human PBMCs (human) (UniProt P14151); experiment: flow cytometry, human PBMCs, biotinylated Fab 1 µg/mL, SA-APC, before washing; median of control (background) 0.2
[15] = target: CD62L antigen on human PBMCs (human) (UniProt P14151); experiment: flow cytometry, human PBMCs, biotinylated Fab 1 µg/mL, SA-APC, after five washing steps; enables reversible labeling: yes
[16] = target: recombinant CD62L antigen (not stated (the Fab labels human PBMCs)) (UniProt P14151); experiment: SPR (Biacore), recombinant antigen (extracellular domain) immobilized by amine coupling, Fab as analyte, 1:1 binding mass transfer model
[17] = target: CD62L antigen on human PBMCs (human) (UniProt P14151); experiment: flow cytometry, human PBMCs, biotinylated Fab 1 µg/mL, SA-APC, after five washing steps; median of control (background) 0.2; enables reversible labeling: yes
[18] = target: CD14 antigen on human PBMCs (human) (UniProt P08571); experiment: flow cytometry, human PBMCs, biotinylated Fab 1 µg/mL, SA-APC, before washing; median of control (background) 0.25
[19] = target: CD14 antigen on human PBMCs (human) (UniProt P08571); experiment: flow cytometry, human PBMCs, biotinylated Fab 1 µg/mL, SA-APC, after five washing steps; enables reversible labeling: yes
[20] = target: recombinant CD14 antigen (not stated (the Fab labels human PBMCs)) (UniProt P08571); experiment: SPR (Biacore), recombinant antigen (extracellular domain) immobilized by amine coupling, Fab as analyte, 1:1 binding mass transfer model
[21] = target: CD14 antigen on human PBMCs (human) (UniProt P08571); experiment: flow cytometry, human PBMCs, biotinylated Fab 1 µg/mL, SA-APC, after five washing steps; median of control (background) 0.25; enables reversible labeling: yes

Sequence of recombinant CD27 antigen (not stated (the Fab labels human PBMCs)) (P26842 20-191): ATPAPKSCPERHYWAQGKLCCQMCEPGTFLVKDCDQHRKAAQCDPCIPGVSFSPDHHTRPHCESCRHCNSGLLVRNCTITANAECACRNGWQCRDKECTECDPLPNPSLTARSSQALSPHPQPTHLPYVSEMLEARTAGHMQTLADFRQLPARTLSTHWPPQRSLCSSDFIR
Sequence of CD14 antigen on human PBMCs (human) (P08571 20-345): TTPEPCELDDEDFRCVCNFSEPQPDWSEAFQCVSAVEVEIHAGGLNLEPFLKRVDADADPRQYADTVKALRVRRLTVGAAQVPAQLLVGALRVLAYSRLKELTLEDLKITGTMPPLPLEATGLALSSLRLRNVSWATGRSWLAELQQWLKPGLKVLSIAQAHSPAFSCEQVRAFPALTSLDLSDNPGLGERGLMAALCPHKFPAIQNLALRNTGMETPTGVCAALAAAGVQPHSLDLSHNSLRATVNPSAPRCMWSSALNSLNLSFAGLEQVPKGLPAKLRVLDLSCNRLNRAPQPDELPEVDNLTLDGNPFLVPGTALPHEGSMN
Sequence of recombinant CD62L antigen (not stated (the Fab labels human PBMCs)) (P14151 39-332): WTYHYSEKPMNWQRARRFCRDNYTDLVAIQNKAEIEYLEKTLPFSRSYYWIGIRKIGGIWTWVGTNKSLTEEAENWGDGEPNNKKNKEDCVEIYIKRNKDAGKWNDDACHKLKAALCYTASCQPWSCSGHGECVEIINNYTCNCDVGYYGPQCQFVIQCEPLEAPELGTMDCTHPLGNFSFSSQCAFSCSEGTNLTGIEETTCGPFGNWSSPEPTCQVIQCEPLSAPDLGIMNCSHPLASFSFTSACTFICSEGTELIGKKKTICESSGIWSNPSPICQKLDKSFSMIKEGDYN
Sequence of CD62L antigen on human PBMCs (human) (P14151 39-372): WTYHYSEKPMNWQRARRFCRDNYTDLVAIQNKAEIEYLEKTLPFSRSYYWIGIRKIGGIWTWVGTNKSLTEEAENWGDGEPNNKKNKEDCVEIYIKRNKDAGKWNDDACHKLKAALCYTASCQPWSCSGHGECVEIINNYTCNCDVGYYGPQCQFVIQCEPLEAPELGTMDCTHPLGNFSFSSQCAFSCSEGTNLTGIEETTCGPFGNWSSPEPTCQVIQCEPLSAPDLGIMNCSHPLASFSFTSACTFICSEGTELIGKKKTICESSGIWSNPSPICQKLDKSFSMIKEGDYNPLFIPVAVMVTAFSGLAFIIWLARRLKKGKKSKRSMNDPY
Sequence of recombinant CD14 antigen (not stated (the Fab labels human PBMCs)) (P08571 20-352 limits assumed): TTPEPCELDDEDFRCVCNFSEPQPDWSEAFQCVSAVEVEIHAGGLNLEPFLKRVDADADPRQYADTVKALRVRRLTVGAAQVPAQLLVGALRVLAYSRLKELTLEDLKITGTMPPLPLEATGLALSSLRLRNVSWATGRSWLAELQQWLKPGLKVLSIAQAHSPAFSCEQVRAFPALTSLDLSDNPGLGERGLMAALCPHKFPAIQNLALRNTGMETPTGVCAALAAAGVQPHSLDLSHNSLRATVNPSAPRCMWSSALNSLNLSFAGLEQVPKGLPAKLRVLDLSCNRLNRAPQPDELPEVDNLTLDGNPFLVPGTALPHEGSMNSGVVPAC
Sequence of CD27 antigen on human PBMCs (human) (P26842 20-260): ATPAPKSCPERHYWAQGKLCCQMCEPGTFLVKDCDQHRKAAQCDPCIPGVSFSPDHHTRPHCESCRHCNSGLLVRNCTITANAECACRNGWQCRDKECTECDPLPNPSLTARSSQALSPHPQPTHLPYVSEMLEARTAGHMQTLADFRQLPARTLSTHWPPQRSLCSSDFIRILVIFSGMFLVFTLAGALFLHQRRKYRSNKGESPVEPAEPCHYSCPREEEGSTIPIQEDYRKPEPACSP

M-T271 pFab
percent of cells in gate P1\P2\P3, column L [1]: 38.2% | percent of cells in gate P1\P2\P3, column LR [2]: 40.2% | median value (i) [3]: 9.9 | % median value of the detected label after Fab removal (before = 100%) [4]: 64% | Kd [5]: 0.96 nM | koff [5]: 0.00026 s⁻¹ | kon [5]: 270000 M⁻¹ s⁻¹ | median value after Fab removal (ii) [6]: 6.3

M-T466 pFab
median value of the PE signal after disruption with free biotin and washing [7]: 0.2 | median value of the PE signal, labeled [8]: 16.4 | median value (i) [9]: 49 | % median value of the detected label after Fab removal (before = 100%) [10]: 0.8% | percent of cells in gate P5, column L [11]: 26.9% | Kd [12]: 16 nM | koff [12]: 0.016 s⁻¹ | kon [12]: 1e+06 M⁻¹ s⁻¹ | median value after Fab removal (ii) [13]: 0.37

145/15 pFab
median value (i) [14]: 35 | % median value of the detected label after Fab removal (before = 100%) [15]: 2.3% | Kd [16]: 110 nM | koff [16]: 0.068 s⁻¹ | kon [16]: 640000 M⁻¹ s⁻¹ | median value after Fab removal (ii) [17]: 0.82

TUK4 pFab
median value (i) [18]: 152 | % median value of the detected label after Fab removal (before = 100%) [19]: 0.7% | Kd [20]: 330 nM | koff [20]: 0.24 s⁻¹ | kon [20]: 730000 M⁻¹ s⁻¹ | median value after Fab removal (ii) [21]: 1
